Data published in article PMC10196870, “Structural insights into the substrate recognition of serine palmitoyltransferase from Sphingobacterium multivorum” (The Journal of Biological Chemistry, 2023).

Target: the molecule itself
Assay: crystal structure; crystals grown in Tris buffer, soaked in Tricine-buffered Tris-free solution without or with amino acids (L-Ser, L-Hse, Gly, L-Ala, L-Thr); space group P4(1)2(1)2, one molecule per asymmetric unit, dimer generated by crystallographic symmetry; 100 K

B1: Sphingobacterium multivorum serine palmitoyltransferase (enzyme, UniProt A7BFV6 1-399, looked up)
chain: MSKGKLGEKISQFKIVEELKAKGLYAYFRPIQSKQDTEVKIDGRRVLMFGSNSYLGLTTDTRIIKAAQDALEKYGTGCAGSRFLNGTLDIHVELEEKLSAYVGKEAAILFSTGFQSNLGPLSCLMGRNDYILLDERDHASIIDGSRLSFSKVIKYGHNNMEDLRAKLSRLPEDSAKLICTDGIFSMEGDIVNLPELTSIANEFDAAVMVDDAHSLGVIGHKGAGTASHFGLNDDVDLIMGTFSKSLASLGGFVAGDADVIDFLKHNARSVMFSASMTPASVASTLKALEIIQNEPEHIEKLWKNTDYAKAQLLDHGFDLGATESPILPIFIRSNEKTFWVTKMLQDDGVFVNPVVSPAVPAEESLIRFSLMATHTYDQIDEAIEKMVKVFKQAEVETLI
modifications: PLP-Lys244 internal aldimine (ligand-free form); in the amino acid complexes PLP forms an external aldimine with the amino acid
notes: serine palmitoyltransferase of Sphingobacterium multivorum, full length, 398 amino acid residues; the model holds Ser2 to Val395; no tag is mentioned; also called S. multivorum SPT; SPT; source: E. coli BL21 (DE3) pLysS, purified (DEAE, Butyl, second DEAE column chromatography, desalting)
B1: binds.
